Experiments:
MHCII (DR) [1] = assay: competition
MHCII (DR) [2] = assay: competition ELISA
[3] = biological target: HLA-DRB1*01:01 MHCII molecule (human); assay: competition ELISA; 25 nM, pp65 reference
[4] = biological target: HLA-DRB1*01:01 MHCII molecule (human); assay: competition ELISA; 50 nM huCLIP-bio
[5] = biological target: HLA-DRB1*01:01 MHCII molecule (human); assay: competition ELISA; 50 nM, pp65 reference
[6] = biological target: HLA-DRB1*01:01 MHCII molecule (human); assay: competition ELISA; 25 nM huCLIP-bio

Substance | IC50 (MHCII (DR) [1]) | IC50 (MHCII (DR) [2]) | also measured
LASV RNAP | 517 nM | – | –
LCMV NP (201-215) | 1220 nM | – | –
LCMV RNAP | 287 nM | – | –
MOG (35-55) | – | 2050 nM | –
OVA (323-339) | – | 10700 nM | –
VETF (275-289) | – | 983 nM | –
VV HP (23-37) | – | 2020 nM | –
mCLIP | – | 268 nM | IC50 [3]: 3.47 nM; IC50 [4]: 429 nM; IC50 [5]: 7.83 nM; IC50 [6]: 162 nM

From US20240255522A1
